Experimental data: patent US20180155434A1 (UNIVERSITY OF TOYAMA, published 2018)

T1: mouse IL-5Rα on Y16 cells (mouse, UniProt P21183 18-415)
T1 construct: whole, on cells; also called IL-5Rα chain; mouse IL-5Rα-expressing cell Y16
T1 sequence (looked up): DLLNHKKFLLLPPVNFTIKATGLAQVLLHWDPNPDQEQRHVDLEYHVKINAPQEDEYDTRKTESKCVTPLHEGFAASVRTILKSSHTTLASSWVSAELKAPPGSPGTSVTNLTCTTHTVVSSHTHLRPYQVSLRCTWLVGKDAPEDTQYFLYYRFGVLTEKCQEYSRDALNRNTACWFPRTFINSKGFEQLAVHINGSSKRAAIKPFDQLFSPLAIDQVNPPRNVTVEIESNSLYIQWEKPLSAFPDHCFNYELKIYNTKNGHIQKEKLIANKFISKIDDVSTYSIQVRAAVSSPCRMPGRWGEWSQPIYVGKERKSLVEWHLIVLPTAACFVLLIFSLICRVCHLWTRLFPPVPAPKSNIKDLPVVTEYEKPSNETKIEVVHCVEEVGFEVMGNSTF

B1: H7 hIgG1 (DF) (H7-1) (antibody, V domains shown)
VH: EVQLQQSGAELGKPGTSVKLSCKVSGYNIKNTYIHWVNQRPGKGLEWIGRIDPANGNPIYAEKFKNKATLTADTSSNTAYMQLSQLKSDDTAIYFCAMHRGHSMGPGPYVMDAWGQGASVTVSS
VL: DIQMTQSPASLSASLGETVTIECRTSEDIYNGLAWYQQKPGKSPQLLIYNANSLHTGVPSRFSGSGSGTQYSLKINSLQSEDVASYCCQQYSNYPFTFGSGTKLEIK
notes: also called core fucose-deficient H7 chimeric antibody; Potelligent-type H7 chimeric antibody
B2: H7 (CS) hIgG1 (DF) (H7-2) (antibody, V domains shown)
VH: EVQLQQSGAELGKPGTSVKLSCKVSGYNIKNTYIHWVNQRPGKGLEWIGRIDPANGNPIYAEKFKNKATLTADTSSNTAYMQLSQLKSDDTAIYFCAMHRGHSMGPGPYVMDAWGQGASVTVSS
VL: DIQMTQSPASLSASLGETVTIECRTSEDIYNGLAWYQQKPGKSPQLLIYNANSLHTGVPSRFSGSGSGTQYSLKINSLQSEDVASYSCQQYSNYPFTFGSGTKLEIK
notes: Human IgG1 and human kappa constant regions, no core fucose (FUT8-/- CHO); also called Cys substitution variant H7-2; H7 (CS) altered form
B3: H7 (CS) hIgG1 (N297A) (H7-4) (antibody, V domains shown)
VH: EVQLQQSGAELGKPGTSVKLSCKVSGYNIKNTYIHWVNQRPGKGLEWIGRIDPANGNPIYAEKFKNKATLTADTSSNTAYMQLSQLKSDDTAIYFCAMHRGHSMGPGPYVMDAWGQGASVTVSS
VL: DIQMTQSPASLSASLGETVTIECRTSEDIYNGLAWYQQKPGKSPQLLIYNANSLHTGVPSRFSGSGSGTQYSLKINSLQSEDVASYSCQQYSNYPFTFGSGTKLEIK
notes: H7 VL with Cys 87 replaced by Ser. Human IgG1 constant region with N297A (EU index) and human kappa constant region; also called H7 (CS) altered form
B4: H7 hIgG1 (N297A) (H7-3) (antibody, V domains shown)
VH: EVQLQQSGAELGKPGTSVKLSCKVSGYNIKNTYIHWVNQRPGKGLEWIGRIDPANGNPIYAEKFKNKATLTADTSSNTAYMQLSQLKSDDTAIYFCAMHRGHSMGPGPYVMDAWGQGASVTVSS
VL: DIQMTQSPASLSASLGETVTIECRTSEDIYNGLAWYQQKPGKSPQLLIYNANSLHTGVPSRFSGSGSGTQYSLKINSLQSEDVASYCCQQYSNYPFTFGSGTKLEIK
notes: Rat H7 variable regions on a human IgG1 constant region with N297A (EU index), so it lacks the N-linked sugar chain; Human kappa light chain constant region; also called N-linked sugar chain-deficient H7 chimeric antibody
B5: rtDNP-1 hIgG1 (DF) antibody (KM8808) (antibody, V domains shown)
VH: EVQLQESGPGLVKPSQSLSLTCSVTGYSITSGYWNWIRKFPGNKMEWIGYISYSGSTYYNPSLKSRISITRDTSKNQFFLQLNSVTTEDTATYYCARWGVRHYFDYWGQGVMATVSS
VL: DVVMTQTPVSLPVSLGGQASISCRSSQSLANSYGNTYLSWYLQKPGQSPQLLIYRVSNTFSGVPDRFSGSGSGTDFTLKISRVEPEDLGDYYCLQGTHQPYTFGAGTKLELK
notes: Isotype control; Rat anti-DNP variable regions on a human IgG1 constant region, no core fucose; also called core fucose-deficient anti-dinitrophenol (DNP) rat/human chimeric antibody
B6: rtDNP-1 hIgG1 (N297A) antibody (KM6161) (antibody, V domains shown)
VH: EVQLQESGPGLVKPSQSLSLTCSVTGYSITSGYWNWIRKFPGNKMEWIGYISYSGSTYYNPSLKSRISITRDTSKNQFFLQLNSVTTEDTATYYCARWGVRHYFDYWGQGVMATVSS
VL: DVVMTQTPVSLPVSLGGQASISCRSSQSLANSYGNTYLSWYLQKPGQSPQLLIYRVSNTFSGVPDRFSGSGSGTDFTLKISRVEPEDLGDYYCLQGTHQPYTFGAGTKLELK
notes: Isotype control; Rat anti-DNP variable regions on a human IgG1 constant region with N297A; also called N-linked sugar chain-deficient anti-DNP rat/human chimeric antibody

Target: T1, mouse IL-5Rα on Y16 cells
Experiment: flow cytometry on Y16 cells expressing mouse IL-5R, detection with goat F(ab')2 anti-human IgG PE, Geomean
Procedure: The chimeric antibodies prepared in Example 8 were evaluated for their antigen binding activity using a mouse-derived cell line Y16 expressing IL-5R. The Y16 cells were washed with SM (staining medium containing 2% FCS, 0.05% NaN₃, and 1 mM EDTA in PBS). Then, Mouse BD Fc Block (manufactured by Becton, Dickinson and Company) was added thereto at a concentration of 5 μg/mL, and the mixture was left standing at 4° C. for 30 min. The cells were inoculated at a cell number of 1×10⁵ cells/well to a 96-well U-bottom plate, and each chimeric antibody adjusted to a final concentration of 10000, 2500, 625, 156, 39, 10, 2.4, or 0.6 ng/mL was added thereto, followed by reaction at 4° C. for 60 min. The rat/human chimeric control antibodies used were rtDNP-1 hIgG1 (DF) antibody (KM8808) and rtDNP-1 hIgG1 (N297A) antibody (KM6161). The nucleotide sequences and amino acid sequences of the variable regions of each isotype control antibody are shown in SEQ ID NOs: 29 to 34. After washing of the cells with SM, Goat F(ab′)₂ Anti-Human IgG PE (γ chain specific) (manufactured by Southern Biotech) diluted 500-fold with SM was added thereto, followed by reaction at 4° C. for 60 min. After washing of the cells with SM, the cells were resuspended in 50 μL of SM. Fluorescence intensity was measured by FCM (flow cytometer FACS Canto II (manufactured by Becton, Dickinson and Company)). The data was analyzed using FlowJo 7.65 (manufactured by Tomy Digital Biology Co., Ltd.) to calculate a Geomean value at each concentration.

Row | Binder | EC50 (read off the curve) [µg/mL] | binding result
1 | B1 | ~0.06 | –
2 | B2 | ~0.04 | –
3 | B3 | ~0.04 | –
4 | B4 | ~0.06 | –
5 | B5 | – | no binding (tested: 10 µg/mL)
6 | B6 | – | no binding (tested: 10 µg/mL)
